Measured values taken from patent publication US20050009119A1.

Target: human nucleophosmin (NPM; B23) (human) (UniProt P06748)
Test: Scatchard analysis, increasing amounts of 125I-labelled antibody on intact cells (cell line not stated)

UniProt P06748, sequence (P06748 whole entry): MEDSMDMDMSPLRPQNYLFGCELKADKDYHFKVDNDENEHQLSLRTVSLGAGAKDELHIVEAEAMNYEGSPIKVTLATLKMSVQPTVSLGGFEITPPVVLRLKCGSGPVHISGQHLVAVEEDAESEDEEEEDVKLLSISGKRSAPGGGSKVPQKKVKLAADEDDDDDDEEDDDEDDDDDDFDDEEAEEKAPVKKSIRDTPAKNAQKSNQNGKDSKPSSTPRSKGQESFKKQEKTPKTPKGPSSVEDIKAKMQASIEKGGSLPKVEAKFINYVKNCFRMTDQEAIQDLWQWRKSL

mouse monoclonal anti-nucleophosmin antibody (Zymed Laboratories, catalog no. 32-5200)
Kd: 8.2 nM
